Data: IntAct's records for PubMed 35512704

B1: Speckle-type POZ protein (Homo sapiens), O43791 (parent)
chain: MSRVPSPPPPAEMSSGPVAESWCYTQIKVVKFSYMWTINNFSFCREEMGEVIKSSTFSSGANDKLKWCLRVNPKGLDEESKDYLSLYLLLVSCPKSEVRAKFKFSILNAKGEETKAMESQRAYRFVQGKDWGFKKFIRRDFLLDEANGLLPDDKLTLFCEVSVVQDSVNISGQNTMNMVKVPECRLADELGGLWENSRFTDCCLCVAGQEFQAHKAILAARSPVFSAMFEHEMEESKKNRVEINDVEPEVFKEMMCFIYTGKAPNLDKMADDLLAAADKYALERLKVMCEDALCSNLSVENAAEILILADLHSADQLKTQAVDFINYHASDVLETSGWKSMVVSHPHLVAEAYRSLASAQCPFLGPPRKRLKQS

Variants of: B1
Details: with hnf1a_human HNF1A

| Variant | effect of a mutation on the interaction |
| --- | --- |
| F133V | with no effect |

Variants of: B1
Details: with igf1r_human IGF1R

| Variant | effect of a mutation on the interaction |
| --- | --- |
| F133V | with no effect |

Variants of: B1
Details: with il7ra_human IL7R

| Variant | effect of a mutation on the interaction |
| --- | --- |
| F133V | with no effect |

Variants of: B1
Details: with int12_human INTS12, Q96CB8

| Variant | effect of a mutation on the interaction |
| --- | --- |
| F133V | with no effect |

Variants of: B1
Details: with ist1_human IST1, P53990

| Variant | effect of a mutation on the interaction |
| --- | --- |
| F133V | with no effect |

Variants of: B1
Details: with jak1_human JAK1, P23458

| Variant | effect of a mutation on the interaction |
| --- | --- |
| F133V | with no effect |

Variants of: B1
Details: with jak3_human JAK3, P52333

| Variant | effect of a mutation on the interaction |
| --- | --- |
| F133V | with no effect |

Variants of: B1
Details: with kat2a_human KAT2A

| Variant | effect of a mutation on the interaction |
| --- | --- |
| F133V | with no effect |

Variants of: B1
Details: with kdm5a_human KDM5A

| Variant | effect of a mutation on the interaction |
| --- | --- |
| F133V | with no effect |

Variants of: B1
Details: with kdm5c_human KDM5C

| Variant | effect of a mutation on the interaction |
| --- | --- |
| F133V | with no effect |

Variants of: B1
Details: with vgfr2_human KDR

| Variant | effect of a mutation on the interaction |
| --- | --- |
| F133V | with no effect |

Variants of: B1
Details: with lims1_human LIMS1, P48059

| Variant | effect of a mutation on the interaction |
| --- | --- |
| F133V | with no effect |

Variants of: B1
Details: with maga6_human MAGEA6, P43360

| Variant | effect of a mutation on the interaction |
| --- | --- |
| F133V | with no effect |

Variants of: B1
Details: with m3k1_human MAP3K1, Q13233
Chain of m3k1_human MAP3K1, Q13233 (Q13233 whole entry): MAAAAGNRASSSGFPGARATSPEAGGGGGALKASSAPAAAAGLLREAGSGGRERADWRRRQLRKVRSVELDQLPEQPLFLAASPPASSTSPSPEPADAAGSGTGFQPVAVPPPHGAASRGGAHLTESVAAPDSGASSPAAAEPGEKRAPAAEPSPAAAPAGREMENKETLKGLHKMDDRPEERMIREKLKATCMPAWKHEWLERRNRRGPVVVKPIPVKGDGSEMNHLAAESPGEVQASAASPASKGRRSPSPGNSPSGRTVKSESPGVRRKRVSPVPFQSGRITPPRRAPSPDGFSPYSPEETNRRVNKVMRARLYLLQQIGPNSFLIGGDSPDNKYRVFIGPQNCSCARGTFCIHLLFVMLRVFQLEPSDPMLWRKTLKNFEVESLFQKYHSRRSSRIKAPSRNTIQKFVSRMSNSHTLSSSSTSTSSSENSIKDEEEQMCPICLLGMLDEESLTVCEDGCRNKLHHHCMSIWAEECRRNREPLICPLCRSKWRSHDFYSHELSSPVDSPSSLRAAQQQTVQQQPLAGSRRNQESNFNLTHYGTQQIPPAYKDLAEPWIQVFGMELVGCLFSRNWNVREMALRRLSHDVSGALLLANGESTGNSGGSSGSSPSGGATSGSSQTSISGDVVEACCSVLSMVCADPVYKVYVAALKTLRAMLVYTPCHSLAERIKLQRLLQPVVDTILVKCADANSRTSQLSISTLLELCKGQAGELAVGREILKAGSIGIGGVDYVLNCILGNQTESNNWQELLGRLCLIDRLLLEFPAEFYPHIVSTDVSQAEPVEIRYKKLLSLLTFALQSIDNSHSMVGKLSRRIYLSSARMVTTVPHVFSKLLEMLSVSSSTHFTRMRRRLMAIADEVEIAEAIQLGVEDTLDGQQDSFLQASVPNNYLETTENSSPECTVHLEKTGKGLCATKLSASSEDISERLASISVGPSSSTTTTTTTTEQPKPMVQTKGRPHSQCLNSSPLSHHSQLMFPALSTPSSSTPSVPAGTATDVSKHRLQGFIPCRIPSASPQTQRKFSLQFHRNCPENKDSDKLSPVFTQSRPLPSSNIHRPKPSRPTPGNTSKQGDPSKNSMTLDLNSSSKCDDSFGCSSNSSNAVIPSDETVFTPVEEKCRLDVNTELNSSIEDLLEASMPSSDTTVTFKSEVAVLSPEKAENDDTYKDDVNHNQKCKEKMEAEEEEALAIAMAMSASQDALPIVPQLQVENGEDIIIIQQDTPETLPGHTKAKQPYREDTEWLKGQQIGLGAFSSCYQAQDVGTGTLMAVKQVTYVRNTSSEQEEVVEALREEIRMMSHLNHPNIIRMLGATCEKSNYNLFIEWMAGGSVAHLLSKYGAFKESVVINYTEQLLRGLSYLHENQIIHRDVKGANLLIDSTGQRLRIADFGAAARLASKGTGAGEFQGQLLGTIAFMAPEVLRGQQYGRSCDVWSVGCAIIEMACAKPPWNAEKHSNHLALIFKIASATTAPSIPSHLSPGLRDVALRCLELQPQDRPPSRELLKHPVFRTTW

| Variant | effect of a mutation on the interaction |
| --- | --- |
| F133V | with no effect |

Variants of: B1
Details: with mk10_human MAPK10, P53779

| Variant | effect of a mutation on the interaction |
| --- | --- |
| F133V | with no effect |

Variants of: B1
Details: with mk14_human MAPK14, Q16539
Chain of mk14_human MAPK14, Q16539 (Q16539 whole entry): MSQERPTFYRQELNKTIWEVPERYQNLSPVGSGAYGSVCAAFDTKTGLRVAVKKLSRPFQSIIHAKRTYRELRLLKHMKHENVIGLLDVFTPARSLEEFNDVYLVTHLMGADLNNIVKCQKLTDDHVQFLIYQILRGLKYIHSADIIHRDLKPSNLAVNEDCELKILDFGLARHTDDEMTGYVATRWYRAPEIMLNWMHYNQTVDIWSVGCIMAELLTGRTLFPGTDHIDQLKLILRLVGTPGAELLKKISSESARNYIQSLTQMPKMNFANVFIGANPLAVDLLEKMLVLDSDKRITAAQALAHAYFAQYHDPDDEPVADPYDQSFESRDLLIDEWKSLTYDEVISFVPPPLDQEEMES

| Variant | effect of a mutation on the interaction |
| --- | --- |
| F133V | with no effect |

Variants of: B1
Details: with mk03_human MAPK3, P27361

| Variant | effect of a mutation on the interaction |
| --- | --- |
| F133V | with no effect |

Variants of: B1
Details: with mk04_human MAPK4, P31152

| Variant | effect of a mutation on the interaction |
| --- | --- |
| F133V | with no effect |

Variants of: B1
Details: with mk06_human MAPK6, Q16659

| Variant | effect of a mutation on the interaction |
| --- | --- |
| F133V | with no effect |

Variants of: B1
Details: with sin1_human MAPKAP1, Q9BPZ7

| Variant | effect of a mutation on the interaction |
| --- | --- |
| F133V | with no effect |

Variants of: B1
Details: with mcl1_human MCL1, Q07820
Chain of mcl1_human MCL1, Q07820 (Q07820 whole entry): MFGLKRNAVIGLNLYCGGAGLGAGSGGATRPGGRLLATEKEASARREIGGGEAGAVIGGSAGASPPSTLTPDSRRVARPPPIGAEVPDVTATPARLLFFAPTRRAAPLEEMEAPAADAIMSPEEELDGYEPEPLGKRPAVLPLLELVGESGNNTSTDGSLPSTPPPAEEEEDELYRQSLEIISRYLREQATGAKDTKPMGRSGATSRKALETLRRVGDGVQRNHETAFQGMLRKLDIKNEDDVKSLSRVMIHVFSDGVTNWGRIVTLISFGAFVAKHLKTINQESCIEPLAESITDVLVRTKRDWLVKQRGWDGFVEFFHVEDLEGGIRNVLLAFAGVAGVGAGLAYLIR

| Variant | effect of a mutation on the interaction |
| --- | --- |
| F133V | with no effect |

Variants of: B1
Details: with mdm2_human MDM2, Q00987

| Variant | effect of a mutation on the interaction |
| --- | --- |
| F133V | with no effect |

Variants of: B1
Details: with mitf_human MITF

| Variant | effect of a mutation on the interaction |
| --- | --- |
| F133V | with no effect |

Variants of: B1
Details: with mlh1_human MLH1, P40692

| Variant | effect of a mutation on the interaction |
| --- | --- |
| F133V | with no effect |

Variants of: B1
Details: with mtor_human MTOR

| Variant | effect of a mutation on the interaction |
| --- | --- |
| F133V | with no effect |

Variants of: B1
Details: with myb_human MYB

| Variant | effect of a mutation on the interaction |
| --- | --- |
| F133V | with no effect |

Variants of: B1
Details: with mybb_human MYBL2, P10244

| Variant | effect of a mutation on the interaction |
| --- | --- |
| F133V | with no effect |

Variants of: B1
Details: with myc_human MYC

| Variant | effect of a mutation on the interaction |
| --- | --- |
| F133V | with no effect |

Variants of: B1
Details: with mycn_human MYCN

| Variant | effect of a mutation on the interaction |
| --- | --- |
| F133V | with no effect |

Variants of: B1
Details: with ncoa3_human NCOA3, Q9Y6Q9

| Variant | effect of a mutation on the interaction |
| --- | --- |
| F133V | with no effect |

Variants of: B1
Details: with ikba_human NFKBIA

| Variant | effect of a mutation on the interaction |
| --- | --- |
| F133V | with no effect |

Variants of: B1
Details: with nox1_human NOX1, Q9Y5S8

| Variant | effect of a mutation on the interaction |
| --- | --- |
| F133V | with no effect |

Variants of: B1
Details: with npm_human NPM1, P06748

| Variant | effect of a mutation on the interaction |
| --- | --- |
| F133V | with no effect |

Variants of: B1
Details: with nsd3_human NSD3, Q9BZ95
Chain of nsd3_human NSD3, Q9BZ95 (Q9BZ95 whole entry): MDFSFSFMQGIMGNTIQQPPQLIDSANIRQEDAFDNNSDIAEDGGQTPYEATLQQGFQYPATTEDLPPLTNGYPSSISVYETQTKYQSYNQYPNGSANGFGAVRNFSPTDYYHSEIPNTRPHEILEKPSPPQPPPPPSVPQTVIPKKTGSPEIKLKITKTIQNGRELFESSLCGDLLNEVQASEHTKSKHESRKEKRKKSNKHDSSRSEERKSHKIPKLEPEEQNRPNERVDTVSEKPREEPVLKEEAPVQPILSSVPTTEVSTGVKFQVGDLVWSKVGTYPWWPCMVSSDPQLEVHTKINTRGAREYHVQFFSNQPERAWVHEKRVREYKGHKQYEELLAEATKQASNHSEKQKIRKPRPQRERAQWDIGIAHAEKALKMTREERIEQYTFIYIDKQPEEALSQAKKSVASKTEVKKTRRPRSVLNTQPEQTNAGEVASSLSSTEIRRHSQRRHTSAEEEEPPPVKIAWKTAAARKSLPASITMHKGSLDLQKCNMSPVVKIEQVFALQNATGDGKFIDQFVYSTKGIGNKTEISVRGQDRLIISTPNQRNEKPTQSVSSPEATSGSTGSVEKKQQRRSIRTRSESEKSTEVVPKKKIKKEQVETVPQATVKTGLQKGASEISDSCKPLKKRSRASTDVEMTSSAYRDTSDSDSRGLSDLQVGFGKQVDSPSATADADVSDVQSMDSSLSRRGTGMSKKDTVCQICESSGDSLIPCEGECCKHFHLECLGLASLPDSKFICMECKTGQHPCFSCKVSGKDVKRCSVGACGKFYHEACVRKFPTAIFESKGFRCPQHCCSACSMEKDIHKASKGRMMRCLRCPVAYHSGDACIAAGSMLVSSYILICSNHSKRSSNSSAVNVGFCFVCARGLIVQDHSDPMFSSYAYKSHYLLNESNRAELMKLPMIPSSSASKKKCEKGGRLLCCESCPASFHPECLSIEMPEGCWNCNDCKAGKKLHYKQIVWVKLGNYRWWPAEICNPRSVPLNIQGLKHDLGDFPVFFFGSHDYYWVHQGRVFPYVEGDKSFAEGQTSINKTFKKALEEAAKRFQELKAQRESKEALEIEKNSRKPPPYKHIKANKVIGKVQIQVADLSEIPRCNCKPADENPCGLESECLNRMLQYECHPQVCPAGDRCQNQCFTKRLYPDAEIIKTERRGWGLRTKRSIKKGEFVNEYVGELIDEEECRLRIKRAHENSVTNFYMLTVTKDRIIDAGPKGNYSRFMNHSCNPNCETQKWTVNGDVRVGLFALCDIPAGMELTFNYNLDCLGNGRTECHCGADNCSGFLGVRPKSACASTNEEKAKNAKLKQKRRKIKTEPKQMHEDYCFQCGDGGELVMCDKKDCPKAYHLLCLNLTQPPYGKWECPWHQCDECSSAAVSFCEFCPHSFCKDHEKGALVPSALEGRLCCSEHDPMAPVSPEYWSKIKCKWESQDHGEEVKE

| Variant | effect of a mutation on the interaction |
| --- | --- |
| F133V | with no effect |

Variants of: B1
Details: with ntrk2_human NTRK2, Q16620

| Variant | effect of a mutation on the interaction |
| --- | --- |
| F133V | with no effect |

Variants of: B1
Details: with ntrk3_human NTRK3, Q16288

| Variant | effect of a mutation on the interaction |
| --- | --- |
| F133V | with no effect |

Variants of: B1
Details: with pak3_human PAK3, O75914
Chain of pak3_human PAK3, O75914 (O75914 whole entry, looked up): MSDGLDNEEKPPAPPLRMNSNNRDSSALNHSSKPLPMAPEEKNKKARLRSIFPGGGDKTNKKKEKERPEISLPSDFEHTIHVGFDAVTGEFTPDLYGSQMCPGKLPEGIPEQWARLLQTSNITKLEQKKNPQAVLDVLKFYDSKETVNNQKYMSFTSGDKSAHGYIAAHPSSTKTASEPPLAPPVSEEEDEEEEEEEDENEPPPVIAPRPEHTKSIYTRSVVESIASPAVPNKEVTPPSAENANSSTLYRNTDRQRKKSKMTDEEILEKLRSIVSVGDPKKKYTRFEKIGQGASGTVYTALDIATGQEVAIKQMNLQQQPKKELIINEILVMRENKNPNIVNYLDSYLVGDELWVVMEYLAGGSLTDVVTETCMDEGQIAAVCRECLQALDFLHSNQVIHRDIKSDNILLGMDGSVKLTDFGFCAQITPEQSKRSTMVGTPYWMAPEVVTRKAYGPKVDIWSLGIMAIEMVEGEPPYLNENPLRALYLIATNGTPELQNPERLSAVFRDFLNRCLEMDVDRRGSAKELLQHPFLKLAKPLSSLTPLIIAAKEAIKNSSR

| Variant | effect of a mutation on the interaction |
| --- | --- |
| F133V | with no effect |

Variants of: B1
Details: with prkn_human PRKN

| Variant | effect of a mutation on the interaction |
| --- | --- |
| F133V | with no effect |

Variants of: B1
Details: with pb1_human PBRM1, Q86U86

| Variant | effect of a mutation on the interaction |
| --- | --- |
| F133V | with no effect |

Variants of: B1
Details: with pcbp1_human PCBP1, Q15365

| Variant | effect of a mutation on the interaction |
| --- | --- |
| F133V | with no effect |

Variants of: B1
Details: with pdcd1_human PDCD1, Q15116
Chain of pdcd1_human PDCD1, Q15116 (Q15116 whole entry): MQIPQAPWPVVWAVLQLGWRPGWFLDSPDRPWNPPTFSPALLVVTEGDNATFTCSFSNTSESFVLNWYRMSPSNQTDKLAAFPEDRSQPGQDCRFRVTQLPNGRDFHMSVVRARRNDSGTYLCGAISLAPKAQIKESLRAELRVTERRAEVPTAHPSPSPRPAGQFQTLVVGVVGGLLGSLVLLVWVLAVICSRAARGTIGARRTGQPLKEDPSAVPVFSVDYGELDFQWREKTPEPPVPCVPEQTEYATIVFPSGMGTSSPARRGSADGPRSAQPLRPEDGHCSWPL

| Variant | effect of a mutation on the interaction |
| --- | --- |
| F133V | with no effect |

Variants of: B1
Details: with pgfrb_human PDGFRB

| Variant | effect of a mutation on the interaction |
| --- | --- |
| F133V | with no effect |

Variants of: B1
Details: with pdk1_human PDK1, Q15118

| Variant | effect of a mutation on the interaction |
| --- | --- |
| F133V | with no effect |

Variants of: B1
Details: with pk3ca_human PIK3CA

| Variant | effect of a mutation on the interaction |
| --- | --- |
| F133V | with no effect |

Variants of: B1
Details: with pk3cb_human PIK3CB

| Variant | effect of a mutation on the interaction |
| --- | --- |
| F133V | with no effect |

Variants of: B1
Details: with pk3cg_human PIK3CG

| Variant | effect of a mutation on the interaction |
| --- | --- |
| F133V | with no effect |

Variants of: B1
Details: with p85b_human PIK3R2, O00459

| Variant | effect of a mutation on the interaction |
| --- | --- |
| F133V | with no effect |

Variants of: B1
Details: with dpod1_human POLD1, P28340

| Variant | effect of a mutation on the interaction |
| --- | --- |
| F133V | with no effect |

Variants of: B1
Details: with dpoe1_human POLE

| Variant | effect of a mutation on the interaction |
| --- | --- |
| F133V | with no effect |

Variants of: B1
Details: with ppard_human PPARD

| Variant | effect of a mutation on the interaction |
| --- | --- |
| F133V | with no effect |

Variants of: B1
Details: with prdm1_human PRDM1, O75626

| Variant | effect of a mutation on the interaction |
| --- | --- |
| F133V | with no effect |

Variants of: B1
Details: with prex2_human PREX2, Q70Z35

| Variant | effect of a mutation on the interaction |
| --- | --- |
| F133V | with no effect |

Variants of: B1
Details: with aapk2_human PRKAA2, P54646

| Variant | effect of a mutation on the interaction |
| --- | --- |
| F133V | with no effect |

Variants of: B1
Details: with prss8_human PRSS8, Q16651

| Variant | effect of a mutation on the interaction |
| --- | --- |
| F133V | with no effect |

Variants of: B1
Details: with ptk6_human PTK6, Q13882

| Variant | effect of a mutation on the interaction |
| --- | --- |
| F133V | with no effect |

Variants of: B1
Details: with tf65_human RELA

| Variant | effect of a mutation on the interaction |
| --- | --- |
| F133V | with no effect |

Variants of: B1
Details: with rictr_human RICTOR

| Variant | effect of a mutation on the interaction |
| --- | --- |
| F133V | with no effect |

Variants of: B1
Details: with rnf43_human RNF43, Q68DV7

| Variant | effect of a mutation on the interaction |
| --- | --- |
| F133V | with no effect |

Variants of: B1
Details: with ros1_human ROS1, P08922

| Variant | effect of a mutation on the interaction |
| --- | --- |
| F133V | with no effect |

Variants of: B1
Details: with rl11_human RPL11, P62913

| Variant | effect of a mutation on the interaction |
| --- | --- |
| F133V | with no effect |

Variants of: B1
Details: with rl5_human RPL5, P46777

| Variant | effect of a mutation on the interaction |
| --- | --- |
| F133V | with no effect |

Variants of: B1
Details: with rs15_human RPS15, P62841

| Variant | effect of a mutation on the interaction |
| --- | --- |
| F133V | with no effect |

Variants of: B1
Details: with rxra_human RXRA

| Variant | effect of a mutation on the interaction |
| --- | --- |
| F133V | with no effect |

Variants of: B1
Details: with sdha_human SDHA

| Variant | effect of a mutation on the interaction |
| --- | --- |
| F133V | with no effect |

Variants of: B1
Details: with setbp_human SETBP1, Q9Y6X0

| Variant | effect of a mutation on the interaction |
| --- | --- |
| F133V | with no effect |

Variants of: B1
Details: with setb1_human SETDB1, Q15047

| Variant | effect of a mutation on the interaction |
| --- | --- |
| F133V | with no effect |

Variants of: B1
Details: with skp2_human SKP2, Q13309
Chain of skp2_human SKP2, Q13309 (Q13309 whole entry): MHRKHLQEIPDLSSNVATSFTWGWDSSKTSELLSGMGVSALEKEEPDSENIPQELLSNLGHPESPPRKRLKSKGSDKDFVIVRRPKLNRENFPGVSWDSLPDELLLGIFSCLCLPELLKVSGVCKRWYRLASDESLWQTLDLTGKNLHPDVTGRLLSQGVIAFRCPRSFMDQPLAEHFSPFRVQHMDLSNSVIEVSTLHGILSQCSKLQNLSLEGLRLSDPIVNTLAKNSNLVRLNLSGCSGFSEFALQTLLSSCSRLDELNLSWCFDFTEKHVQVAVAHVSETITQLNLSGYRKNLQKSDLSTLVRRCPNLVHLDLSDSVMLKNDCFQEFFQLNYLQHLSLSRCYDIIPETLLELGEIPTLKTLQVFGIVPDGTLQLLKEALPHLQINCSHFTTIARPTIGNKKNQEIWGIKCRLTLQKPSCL

| Variant | effect of a mutation on the interaction |
| --- | --- |
| F133V | with no effect |

Variants of: B1
Details: with xct_human SLC7A11, Q9UPY5

| Variant | effect of a mutation on the interaction |
| --- | --- |
| F133V | with no effect |

Variants of: B1
Details: with smad1_human SMAD1, Q15797

| Variant | effect of a mutation on the interaction |
| --- | --- |
| F133V | with no effect |

Variants of: B1
Details: with smca4_human SMARCA4, P51532

| Variant | effect of a mutation on the interaction |
| --- | --- |
| F133V | with no effect |

Variants of: B1
Details: with snf5_human SMARCB1, Q12824

| Variant | effect of a mutation on the interaction |
| --- | --- |
| F133V | with no effect |

Variants of: B1
Details: with smo_human SMO

| Variant | effect of a mutation on the interaction |
| --- | --- |
| F133V | with no effect |

Variants of: B1
Details: with smuf1_human SMURF1, Q9HCE7

| Variant | effect of a mutation on the interaction |
| --- | --- |
| F133V | with no effect |

Variants of: B1
Details: with socs1_human SOCS1, O15524

| Variant | effect of a mutation on the interaction |
| --- | --- |
| F133V | with no effect |

Variants of: B1
Details: with sox10_human SOX10, P56693

| Variant | effect of a mutation on the interaction |
| --- | --- |
| F133V | with no effect |
